Measurements as given in paper PMC8442969.

Experiments:
Experiment in all cases: NMR titration
[1] = target: human CSNAP (CSN Acidic Protein), GST tag removed (human)
[2] = target: human DSS1 (Deletion of Split-hand/Split-foot 1), GST tag removed (human)
[3] = target: human mono-ubiquitin, N-terminally 6xHis tagged (made in house, for NMR) (human) (UniProt P0CG48)

KD(app), first of two groups of residues [1] | KD(app), second of two groups of residues [1] | KD of site UBS2 (apparent) [2] | Kd [3] | Substance
800 µM | 2000 µM | 1800 µM | – | human mono-ubiquitin, N-terminally 6xHis tagged (made in house, for NMR) (from UniProt P0CG48 1-76) (natural protein)
– | – | – | 430 µM | human DSS1 (Deletion of Split-hand/Split-foot 1), GST tag removed (natural protein)
